From patent US20110004951A1, “METHODS AND COMPOSITIONS FOR IDENTIFYING COMPOUNDS THAT INHIBIT HIV-1 SUBUNIT-SPECIFIC REVERSE TRANSCRIPTASE” (UAB Research Foundation, The, priority 2004, published 2011)

Columns and labels:
[1] = molecular target: T1, p51W401A/p66W401A trans-heterodimeric RT (Human immunodeficiency virus type 1 group M subtype B, UniProt P04585, W988A); assay: Effects of NNRTIs on trans-RT subunit interaction: immunoblot of virion-associated p66 from transfected 293T cells; format: cell-based, HIV-1; conditions: p51 W401A/p66 W401A RT mutants, FIG. 22
T1 construct: expressed in transfected cells; host or cells: 293T
Experimental: The dimerization enhancing NNRTI EFV was added to the culture medium 12 h after DNA transfection at concentrations ranging from 0.01-1.0 μM. The transfection-derived virions were collected 48 hours later and analyzed by immunoblot using mAbs to (A) RNase H and (B) CA.
At 24 h post-transfection, the specified concentrations of drug were added. […] The clarified supernatants were processed for and analyzed by immunoblot as described below.
Transfection-derived virions were concentrated by ultracentrifugation through 20% sucrose cushion (125,000×g, 2 hr, 4° C.) using a SW41 rotor (Beckman Inc.). […] The blocked blots were exposed to an appropriate primary antibody for 1 h in blocking buffer with constant mixing. After extension washing, bound antibodies were detected by chemiluminescence using horseradish peroxidase-conjugated species-specific secondary antibodies (Southern Biotechnology Associates, Inc.).

[2] = system: M7 virions complemented with wildtype trans-RT (Vpr-p51/p66); assay: Inhibition of trans-RT using NRTI and NNRTI, TZM-b1 reporter cell infectivity assay; format: cell-based, HIV-1; conditions: for antiviral effect, inhibition of infectivity: TZM-b1 indicator cells, 3TC 0.04, 0.2 and 1.0 μM, nevirapine 1.0, 5.0 and 5.0 μM as printed
Experimental: Virions derived by cotransfection with M7, vpr-p51/p66 and vpr-IN were used to infect the TZM-b1 reporter cell line. The two RT drugs, 3TC and nevirapine, were analyzed at concentrations of 0.04-1.0 μM for 3TC and 1.0-25.0 μM for nevirapine as described in Example 1. The results are expressed as a percentage of untreated virus.
The trans-heterodimer assay is of clinical relevance for analyzing HIV-1 RT inhibitors, drug resistance and the effects of drug resistance mutations on viral fitness. To examine the response of the trans-heterodimeric RT to anti-RT drugs, transfection-derived M7 virions complemented with wildtype trans-RT (Vpr-p51/p66) were used to infect the TZM-b1 indicator cells in the absence or presence of either 3TC (0.04, 0.2 and 1.0 μM) or nevirapine ([…]).
Virions were derived by cotransfection of 293T cells with M7, vpr-p51/p66 and vpr-IN. The TZM-b1 cells were seeded overnight in 24-well plates at a concentration of 40,000 cells in 250 μl of medium per well. The culture medium was removed and replaced with 250 μl of DMEM containing 1% FBS and 2× drug concentrations (5-fold dilutions). 250 μl of virus suspension normalized for equal IU, as determined by TZM-b1 assay (diluted in DMEM containing 1% FBS and 80 μg/ml DEAE-dextran), was then added to the cells. The two RT drugs used in this analysis, 3TC and nevirapine, were at final concentrations ranging from 0.04-1.0 μM and 1.0-25.0 μM, respectively. The cells were fixed 48 h post-infection, stained with X-gal reagent, and the blue-stained cells were counted using a light microscope as described above. The 50% inhibition concentration (IC50) was measured with a 95% confidence interval.

[3] = system: HIV-1 NL4-3 with L234A, W398A, W401A and YMAA mutations; assay: Infectivity of HIV-1 NL4-3 proviral clones with RT mutations, with efavirenz (FIG. 23); conditions: NL4-3 proviral clones with RT mutation, transfected into 293T cells
Experimental: Additional analysis of the W401A and W410A mutations was conducted in the context of the complete HIV-1 NL4-3 proviral clone. […] The non-infectious RT-minus M7 clone was included as negative control (lane 2). […] Probing a replica blot with mAb to CA confirmed that approximately the same amount of each virus was analyzed (FIG. 13C).

[4] = molecular target: p66^L234A subunit of HIV-1 reverse transcriptase, expressed in trans (HIV-1 (pSG3)); assay: cell-based or functional assay
[5] = molecular target: p66^W401A subunit of HIV-1 reverse transcriptase, expressed in trans (HIV-1 (pSG3)); assay: cell-based or functional assay
[6] = molecular target: p66^W410A subunit of HIV-1 reverse transcriptase, expressed in trans (HIV-1 (pSG3)); assay: cell-based or functional assay
[7] = molecular target: p66 subunit of HIV-1 reverse transcriptase, expressed in trans with Met-Gly on the N-terminus (HIV-1 (pSG3)); assay: cell-based or functional assay
[8] = molecular target: p66^W410L subunit of HIV-1 reverse transcriptase, expressed in trans (HIV-1 (pSG3)); assay: cell-based or functional assay

## 2′,5′-bis-O-(tert-butyldimethylsilyl)-beta-D-ribofuranosyl 3′-spiro-5″-(4″-amino-1″,2″-oxathiole 2″,2″-dioxide) [TSAO]
[1]
  RT heterodimerization, destabilization: can destabilize HIV-1 RT heterodimerization

## Nc1ccn([C@@H]2CS[C@H](CO)O2)c(=O)n1 [3TC]
[2]
  antiviral effect, inhibition of infectivity: potent, dosage-dependent antiviral effect

## O=C1Nc2ccc(Cl)cc2[C@@](C#CC2CC2)(C(F)(F)F)O1 [efavirenz]
[3]
  rescue of infectivity of mutant virus: not rescued

## Cc1ccnc2c1NC(=O)c1cccnc1N2C1CC1 [nevirapine]
[2]; Human immunodeficiency virus 1, TZM-b1, 48 h, read-out: IC50, inhibition of infectivity
  IC50: 11 nM
[2]
  antiviral effect, inhibition of infectivity: potent, dosage-dependent antiviral effect

## Vpr-p51 fusion protein, wildtype, modified construct with 135 bps of PR sequence (45 amino acids) between Vpr and RT
[4]
  virus infectivity, TZM-b1 reporter cells, percentage of wildtype trans heterodimer: < 5%
[5]
  virus infectivity, JLTRG-R5 reporter T cell line (EGFP), percentage of wildtype trans-RT: 50%
  virus infectivity, TZM-b1 reporter cells, percentage of wildtype trans heterodimer: 40%
  virus infectivity, TZM-b1 reporter cells, percentage of wildtype trans-RT: 40%

## Vpr-p51^N363A fusion protein
[6]
  virus infectivity, TZM-b1 reporter cells, percentage of wildtype trans heterodimer: 35%

## Vpr-p51^N363A;Y405A fusion protein
[7]
  virus infectivity, TZM-b1 reporter cells, percentage of wildtype trans heterodimer: 35%

## Vpr-p51^W398A fusion protein
[7]
  virus infectivity, TZM-b1 reporter cells, percentage of wildtype trans-RT heterodimer: < 50%

## Vpr-p51^W401A fusion protein
[6]
  virus infectivity, TZM-b1 reporter cells, percentage of wildtype trans heterodimer: 40%
[8]
  virus infectivity, TZM-b1 reporter cells, percentage of wildtype trans heterodimer: 40%

## Vpr-p51^W401L fusion protein
[6]
  virus infectivity, TZM-b1 reporter cells, percentage of wildtype trans heterodimer: 40%

## Vpr-p51^W402A fusion protein
[7]
  virus infectivity, TZM-b1 reporter cells, percentage of wildtype trans-RT heterodimer: < 50%

## Vpr-p51^W406A fusion protein
[7]
  virus infectivity, TZM-b1 reporter cells, percentage of wildtype trans-RT heterodimer: < 50%

## Vpr-p51^W414A fusion protein
[7]
  virus infectivity, TZM-b1 reporter cells, percentage of wildtype trans-RT heterodimer: < 50%

## Vpr-p51^Y405A fusion protein
[7]
  virus infectivity, TZM-b1 reporter cells, percentage of wildtype trans-RT heterodimer: 50%
[6]
  virus infectivity, TZM-b1 reporter cells, percentage of wildtype trans heterodimer: 25%
